We go through 1 molecule from publication PMC12663309.

This experiment deals with NEK7-mut (NEK7 with deletion of the binding sites) (UniProt Q8TDX7). As to the kind of experiment: SPR; Biacore T200; NEK7 or NEK7-mut immobilised by amine coupling; SDHB flowed at different concentrations; 1:1 Langmuir binding model. In general terms: Surface plasmon resonance follows binding to a sensor surface in real time, without labels.
NEK7-mut (NEK7 with deletion of the binding sites), sequence (Q8TDX7 whole entry, stated change not applied): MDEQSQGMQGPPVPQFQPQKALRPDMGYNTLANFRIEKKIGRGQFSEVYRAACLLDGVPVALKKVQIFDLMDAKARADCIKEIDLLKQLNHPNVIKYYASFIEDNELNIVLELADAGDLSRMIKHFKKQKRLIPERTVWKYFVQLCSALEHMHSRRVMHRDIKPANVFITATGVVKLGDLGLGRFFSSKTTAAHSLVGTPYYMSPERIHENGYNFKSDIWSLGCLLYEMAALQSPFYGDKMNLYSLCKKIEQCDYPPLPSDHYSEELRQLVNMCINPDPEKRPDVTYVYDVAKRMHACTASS

B1: human SDHB recombinant protein (Ag29868, Proteintech) (natural protein)
chain: AQTAAATAPRIKKFAIYRWDPDKAGDKPHMQTYEVDLNKCGPMVLDALIKIKNEVDSTLTFRRSCREGICGSCAMNINGGNTLACTRRIDTNLNKVSKIYPLPHMYVIKDLVPDLSNFYAQYKSIEPYLKKKDESQEGKQQYLQSIEEREKLDGLYECILCACCSTSCPSYWWNGDKYLGPAVLMQAYRWMIDSRDDFTEERLAKLQDPFSLYRCHTIMNCTRTCPKGLNPGKAIAEIKKMMATYKEKKASV
Turning to B1, the Kd (in general, the equilibrium constant for the complex coming apart) stood at 4.75 µM. That is a single-digit micromolar value.
